{
  "source": "patent US20110183896A1",
  "about": "(published 2011)",
  "key": {"[1]": {"biological_target": "Cry3Aa toxin of Bacillus thuringiensis tenebrionis, chymotrypsin-treated (Bacillus thuringiensis subsp. …, UniProt P0A379 159-644)", "sequence (P0A379 159-644)": "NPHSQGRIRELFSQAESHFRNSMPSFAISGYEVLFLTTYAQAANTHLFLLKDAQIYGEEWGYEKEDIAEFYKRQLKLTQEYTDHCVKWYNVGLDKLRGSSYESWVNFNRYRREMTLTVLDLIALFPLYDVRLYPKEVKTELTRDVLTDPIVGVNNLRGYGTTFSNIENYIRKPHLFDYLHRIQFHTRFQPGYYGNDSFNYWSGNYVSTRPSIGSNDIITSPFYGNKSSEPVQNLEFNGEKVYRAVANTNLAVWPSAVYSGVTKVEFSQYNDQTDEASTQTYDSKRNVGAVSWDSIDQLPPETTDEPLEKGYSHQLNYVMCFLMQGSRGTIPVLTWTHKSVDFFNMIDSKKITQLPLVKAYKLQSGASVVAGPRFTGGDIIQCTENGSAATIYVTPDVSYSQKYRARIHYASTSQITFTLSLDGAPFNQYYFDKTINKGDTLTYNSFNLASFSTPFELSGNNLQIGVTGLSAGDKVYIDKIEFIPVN", "assay": "ELISA"}, "[2]": {"biological_target": "Cry3Bb toxin of Bacillus thuringiensis, recombinant from E. coli, chymotrypsin-treated (Bacillus thuringiensis, UniProt Q06117 160-652)", "sequence (Q06117 160-652)": "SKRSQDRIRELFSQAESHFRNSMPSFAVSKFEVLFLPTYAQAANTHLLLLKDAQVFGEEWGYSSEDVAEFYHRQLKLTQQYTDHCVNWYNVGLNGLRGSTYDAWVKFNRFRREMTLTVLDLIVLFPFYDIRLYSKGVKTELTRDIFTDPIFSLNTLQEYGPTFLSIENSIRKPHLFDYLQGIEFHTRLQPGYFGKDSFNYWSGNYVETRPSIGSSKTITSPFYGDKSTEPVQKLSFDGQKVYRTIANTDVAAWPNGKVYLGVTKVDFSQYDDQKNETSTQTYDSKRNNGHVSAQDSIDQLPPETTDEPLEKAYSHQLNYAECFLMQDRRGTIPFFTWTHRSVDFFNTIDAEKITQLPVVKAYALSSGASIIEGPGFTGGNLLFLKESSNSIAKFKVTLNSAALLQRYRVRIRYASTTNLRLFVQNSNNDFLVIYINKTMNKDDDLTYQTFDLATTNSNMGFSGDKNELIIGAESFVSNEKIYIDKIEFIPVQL", "assay": "ELISA saturation binding"}},
  "data": [
    {"binder": "Dv-CR8-10 peptide (cadherin repeats 8-10 of the Diabrotica virgifera virgifera cadherin-like protein), biotinylated (biotinylated (sites not given)) MAVLMTKDLQCSENLNKDGEVGEGIIGEDIDDGDNAKIDFSVLSIVDKETKNDIQESFNISKIDSDYVLNDTLKKVHLIAFEDLKGKYGTYEVTLHMHDEGDPMQTTDPDPTLTLTIEKWNYQTPSIIFPENDQTYIVLSDQQPGQPLALFNNTGTSNTLPDFSATDGETKDYSKWDVKFSYTQTNYEDDKIFVIDHIQPCVSQLQVSKHFNSDLVRSKKYKLTITASVKDGAEQEGEAGYSTSANISIVFLNNDAQPIFQNSDWSVSFVEFNTTQPAKPLEEQAEYENTKGGLPIYYHFYSENQTLSKYFEVDETSGDLSVIGNLTYDYDQDISFHIVASNDSQVRMLDPRSSLNVTVNFLPRNRRAPQWHHHHHH", "values": [
      {"measurement": "Kd", "setting": "[1]", "result": 18.8, "unit": "nM"},
      {"measurement": "Kd", "setting": "[2]", "result": 1.4, "unit": "nM"}
    ]}
  ]
}
